Test results taken from patent publication US9074002B2, “PTP1B inhibitors” (Cold Spring Harbor Laboratory, priority 2009, dated 2015).

Legend:
PTP1B (reduced, active) = target: T1, PTP1B (reduced, active) (Homo sapiens, UniProt P18031); assay: Direct effect of scFvs/antibodies on PTP1B phosphatase activity (32P-pTyr-RCML substrate); format: biochemical; conditions: 32P-labeled pTyr-RCML substrate, FIG. 1
T1 construct: made in house; host or cells: E. coli BL21 (pET19b)
T1 sequence (P18031 3-277 limits assumed): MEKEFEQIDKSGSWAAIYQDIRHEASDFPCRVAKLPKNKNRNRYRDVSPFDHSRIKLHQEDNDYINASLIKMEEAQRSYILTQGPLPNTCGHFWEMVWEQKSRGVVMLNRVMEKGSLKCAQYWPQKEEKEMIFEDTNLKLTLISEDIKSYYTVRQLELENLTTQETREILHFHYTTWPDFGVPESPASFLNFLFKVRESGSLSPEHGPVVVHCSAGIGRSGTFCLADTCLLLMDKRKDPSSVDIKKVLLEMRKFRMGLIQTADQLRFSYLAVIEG
Experimental: Applicant's hypothesis was that scFvs that are able to bind to and stabilize the oxidized conformation of PTP1B in solution would inhibit reactivation by reducing agent, but have no direct inhibitory effect on phosphatase activity in assays in vitro. Activity was measured using ^32P-labeled pTyr-Reduced Carboxamidomethylated and Maleylated Lysozyme as substrate. Applicant established conditions in which wild type PTP1B could be reversibly oxidized in vitro. PTP1B was inactivated following addition of H2O2. […] Applicant validated this approach further, by testing the effects of expressing one of the scFvs (scFv45) as a single chain antibody fragment “intrabody” to PTP1B, using 293T cells as the expression system. This intrabody was expressed transiently and then tested for effects on insulin signaling, focusing initially on the tyrosine phosphorylation status of the beta-subunit of the insulin receptor and insulin receptor substrate (IRS-1).
Reduced carboxamidomethylated and maleylated lysozyme (RCML) was labeled with ^32P using recombinant GST-FER kinase to stoichiometries up to 0.8 (mol ^32P incorporated/mol of protein). This ^32P-Labeled phospho-tyrosyl RCML was used as the substrate in the in-solution phosphatase assay for screening the conformation sensor scFvs. Recombinant PTP1B was reversibly oxidized and transiently inactivated with H2O2 (5× molar excess of the protein). […] Purified bacterially expressed scFvs (100× molar excess of PTP1B) were incubated with PTP after H2O2 treatment and its removal and the effect of individual scFv on stabilizing the reversibly oxidized conformation was assessed by the phosphatase assay under reducing condition.
In order to screen the isolated scFvs for those that inhibit reactivation of PTP1B-OX by reducing agent, but have no direct inhibitory effect on phosphatase activity in assays in vitro, the effect of six scFvs (scFv20, scFv34, scFv45, scFv57, scFv64 and scFv106) on PTP1B activity was determined. PTP1B activity was measured using 32P-labeled pTyr-Reduced Carboxamidomethylated and Maleylated Lysozyme as substrate (FIGS. 1 and 2). Addition of the reducing agent TCEP alone had no substantial effect in PTP1B activity was assessed.

[1] = target: T2, PTP1B under reducing condition (Homo sapiens, UniProt P18031); assay: In vitro binding assay, purified recombinant PTP1B (37 kDa) and purified scFv, Ni-NTA pull down, reducing condition; conditions: with 2 mM TCEP; FIG. 9
T2 construct: made in house; host or cells: E. coli BL21 (pET19b)
T2 sequence (P18031 3-277 limits assumed): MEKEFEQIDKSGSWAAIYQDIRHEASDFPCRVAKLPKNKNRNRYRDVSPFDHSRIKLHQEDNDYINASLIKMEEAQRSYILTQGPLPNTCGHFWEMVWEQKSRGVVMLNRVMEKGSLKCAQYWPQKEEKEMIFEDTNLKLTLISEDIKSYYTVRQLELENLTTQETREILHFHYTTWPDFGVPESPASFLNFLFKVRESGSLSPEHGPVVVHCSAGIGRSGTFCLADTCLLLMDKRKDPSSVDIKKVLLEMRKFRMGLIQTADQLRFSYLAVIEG
Experimental: (§1) They established conditions in which PTP1B is reversibly oxidized by H2O2 in solution (FIG. 8). An artificial protein substrate RCML, in which tyrosine was phosphorylated with ^32P using recombinant GST-FER kinase was used in this assay to measure the phosphatase activity. Recombinant PTP (37 kDa) was incubated with increasing concentration (50 μM to 100 mM) of H2O2. A quick buffer exchange was done to remove the H2O2 and reducing agent (TCEP) was added to reactivate the enzyme.
(§2) In the in vitro binding assay, purified PTP was reversibly oxidized with […] followed by a quick buffer exchange to remove H2O2 (FIG. 8). Purified scFv was incubated in molar excess with PTP1B-OX or with PTP under reducing condition (with 2 mM TCEP) in binding buffer (20 mM HEPES, pH 7.4, 300 mM NaCl, 0.05% BSA, 0.05% Tween-20 and 10 mM imidazole) for 2 hours at 4° C. Ni-NTA agarose was added and incubated for one hour at 4° C. Protein complex bound to Ni-NTA agarose beads was pulled down and washed (three times, 5 minutes each, at 4° C.) with binding buffer containing 20 mM imidazole to reduce non-specific binding to the beads. The protein complex was eluted from the Ni-NTA agarose beads with 500 mM imidazole (in binding buffer, pH 7.4) for 15 minutes at 4° C. with gentle shaking. The complex was separated by SDS-PAGE and PTP1B was detected with anti-PTP1B antibody (FG6) and scFv was detected with anti-HA antibody [anti-HA (3F10)-HRP, Roche] by immunoblotting. Eight different scFvs (scFvs 20, 21, 24, 28, 45, 48, 57, and 105), expressed and purified from bacterial cultures were tested by this in vitro binding experiment.

PTP1B-OX = target: T3, PTP1B-OX (Homo sapiens, UniProt P18031); assay: In vitro binding assay, purified recombinant PTP1B (37 kDa) and purified scFv, Ni-NTA pull down; conditions: purified proteins, scFv in molar excess, 2 hours at 4° C.; FIG. 9
T3 construct: made in house; host or cells: E. coli BL21 (pET19b)
T3 sequence (P18031 3-277): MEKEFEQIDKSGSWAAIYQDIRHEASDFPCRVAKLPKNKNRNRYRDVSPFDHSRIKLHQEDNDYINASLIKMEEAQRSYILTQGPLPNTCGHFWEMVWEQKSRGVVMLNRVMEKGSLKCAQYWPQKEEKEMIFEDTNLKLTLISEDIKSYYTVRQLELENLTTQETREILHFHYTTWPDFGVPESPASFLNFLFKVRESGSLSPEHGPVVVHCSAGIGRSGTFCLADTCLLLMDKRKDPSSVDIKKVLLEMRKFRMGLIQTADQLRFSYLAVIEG
Experimental: as §1, §2

endogenous PTP1B-OX = target: T4, endogenous PTP1B-OX (Homo sapiens, UniProt P18031); assay: Intrabody interaction in 293T cells treated with H2O2 (Ni-NTA pull down / anti-PTP1B immunoprecipitation); format: cell-based; conditions: 1 mM H2O2 5 minutes, FIGS. 11, 12
T4 construct: endogenous in cells; host or cells: 293T cells (transfected only with the scFv intrabody)
T4 sequence (P18031 1-435): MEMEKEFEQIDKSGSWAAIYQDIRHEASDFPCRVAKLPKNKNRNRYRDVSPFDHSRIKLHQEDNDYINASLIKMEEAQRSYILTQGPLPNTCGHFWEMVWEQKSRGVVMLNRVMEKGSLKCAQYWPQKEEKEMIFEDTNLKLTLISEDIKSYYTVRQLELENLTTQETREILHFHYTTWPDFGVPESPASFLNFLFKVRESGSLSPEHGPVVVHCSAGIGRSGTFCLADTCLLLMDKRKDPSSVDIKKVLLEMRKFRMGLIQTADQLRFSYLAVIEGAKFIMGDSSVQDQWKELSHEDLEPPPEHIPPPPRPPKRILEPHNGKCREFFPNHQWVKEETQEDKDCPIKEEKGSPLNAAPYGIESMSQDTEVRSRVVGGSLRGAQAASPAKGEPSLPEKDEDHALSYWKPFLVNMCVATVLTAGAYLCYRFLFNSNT
Experimental: One of the positive candidate scFvs (scFv45) was cloned in pcDNA3.2/V5-GW/D-TOPO expression vector and transiently expressed in mammalian cells as stable intracellular antibody (aka intrabody) (FIG. 10). To detect PTP1B-OX and scFv45 interaction in mammalian cells, scFv45 was overexpressed in 293T cells as described herein (See Example 4) and 48 hours post transfection the cells were serum-starved for 16 hours in growth medium (DMEM, low glucose) without serum (FBS), then incubated with 1 mM H2O2 (in growth medium without serum) for 5 minutes at 37° C. or treated with 20 mM NAC (in growth medium without serum) for 1 hour at 37° C. Cells treated with H2O2 were washed twice with cold (4° C.) PBS and lysed in lysis buffer (25 mM HEPES, pH 7.4, 150 mM NaCl, 0.25% Deoxychloate, 1% TritonX-100, 25 mM NaF, 10 mM MgCl2, 1 mM EDTA, 10% Glycerol, 0.5 mM PMSF, 10 mM Benzamidine, protease inhibitor cocktail). Cells treated with NAC were lysed with lysis buffer containing 2 mM TCEP to ensure a post-lysis reducing environment. Interaction between PTP1B and intrabody45 were tested by pulling down the protein complex from 1 mg of total cell lysate with Ni-NTA agarose or by immunoprecipitating PTP with anti-PTP1B (FG6). For the pull down experiment, Ni-NTA agarose beads were incubated with the lysates (both oxidized and reduced) at 4° C. Protein complex bound to the Ni-NTA agarose beads was pulled down and washed three times; first with lysis buffer containing 20 mM imidazole followed by two more washes with wash buffer (PBS, pH 7.4, 20 mM imidazole, 0.05% BSA, 0.05% Tween-20 and protease inhibitors). Applicant used 20 mM imidazole in the wash buffer to reduce the non-specific binding of proteins with the Ni-NTA agarose beads. The complex was eluted with wash buffer containing 500 mM imidazole with gentle shaking at 4° C. and the eluate was mixed with SDS sample buffer with DTT. For the immunoprecipitation experiments, 1 mg of total cell lystates (both oxidized and reduced) was incubated with anti-PTP1B antibody (FG6) at 4° C. The interacting protein complex was immunoprecipitated after incubating the lysate-antibody mixture with protein A/G Sepharose at 4° C. After immunoprecipitation, Sepharose beads were washed three times; first with lysis buffer followed by two more washes with wash buffer (PBS, pH 7.4, 0.05% BSA, 0.05% Tween-20 and protease inhibitors). The Sepharose beads were then heated at 90° C. in 2×SDS sample buffer with DTT. Proteins from the pulled down or immunoprecipitated complex were separated by SDS-PAGE. PTP was detected with anti-PTP1B antibody (FG6) and the intrabodies were detected with anti-HA (3F10)-HRP antibody [anti-HA (3F10)-HRP, Roche] by immunoblotting.
In the initial in vitro phosphatase screening assay using reversibly oxidized (with H2O2) recombinant PTP1B, Applicant found four different PTP1B-OX specific scFvs (scFv45, scFv57, scFv64 and scFv106) from the initial pool of 12 different scFvs. […] Applicant has also shown that scFv45, expressed as an intrabody in mammalian cells, can bind to endogenous PTP1B-OX but not endogenous PTP under reducing conditions. Further assessment was carried out to identify additional PTP1B-OX-specific intrabodies. Additional scFvs have been subcloned in pcDNA3.2/V5-GW/D-TOPO mammalian expression vector (FIG. 10) from their respective phagemid constructs. After transient overexpression of these scFvs as intrabodies in 293T cells, the interaction between endogenous PTP1B and these intrabodies in both H2O2-treated cells and cells was observed under reducing condition (treated with NAC and lysed with lysis buffer containing TCEP). […] All can be used in the methods and compositions described herein. Additional scFvs, such as some or all of the 137 selected individual scFvs from the library, can be similarly tested by in vitro screening and/or by binding assay in mammalian cells.

Row | Molecule | direct effect on PTP1B activity (PTP1B (reduced, active)) | binding to PTP1B under reducing condition in vitro [1] | binding to PTP1B-OX in vitro (PTP1B-OX) | binding of intrabody to endogenous PTP1B-OX (endogenous PTP1B-OX)
1 | scFv20: scFv, SEQ ID NO: 53 (protein) scFv: MKKTAIAIAVALAGFATVAQAALTQPSSVSANLGGIVEITCSGSSGSYGWYQQKSPGSAPVTVIYYNDKRPSNIPSRFSGSGSGSTNTLTIAGVRAEDEAVYYCGNEDSSGAAFGAGTTLTVLGQSSRSSAVTLDESGGGLQTPGGGLSLVCKASGFTFSDYDMFWVRQAPSKGLEFVAAITSSGTGTKYGAAVKGRATISKDNGQRTVRLQLNSLGAEDTGTYYCARSDADSTTWSAGEIDAWGHGTEVIVSSTSGQAGQHHHHHHGAYPYDVPDYAS | no direct inhibition of PTP activity | no significant binding | no significant binding | –
2 | scFv34: scFv, SEQ ID NO: 67 and 163 (protein) scFv: MKKTAIAIAVALAGFATVAQAALTQPSSVSANPGGTVEITCSGSSGSHGWYQQKSPGSAPVTVIYDNTNRPSDIPSRFSGSLSGSTATLTITGVQAEDEAVYYCGSFDTNSDSGYVGIFGARTTLTVLGQSSRSSTETLDDSGGGLQTPGGALSLVCNASGFTFISYDMFWVRQAPGKGLEFVTQINSAGSYTNYGSAVNGRATISRNDGQITVRLQLNDLTADDTGIYFCAESASGYDYSGSDAGDINAWGHGTEVVVSSTSGQAGQHHHHHHGAYPYDVPDYAS | no direct inhibition of PTP activity | – | – | bound weakly to PTP1B-OX
